Substrate: O=c1ccn([C@@H]2O[C@H](COP(=O)(O)OP(=O)(O)O[C@H]3OC[C@@H](O)[C@H](O)[C@H]3O)[C@@H](O)[C@H]2O)c(=O)[nH]1
Assay: cells, lysate or membranes
Conditions: Pichia-expressed; conditions not stated

B1: Pichia-expressed form of XT-I (Homo sapiens) (protein)
chain: PKCDISGKEAISALSRAKSKHCRQEIGETYCRHKLGLLMPEKVTRFCPLEGKANKNVQWDEDSVEYMPANPVRIAFVLVVHGRASRQLQRMFKAIYHKDHFYYIHVDKRSNYLHRQVLQVSRQYSNVRVTPWRMATIWGGASLLSTYLQSMRDLLEMTDWPWDFFINLSAADYPIRTNDQLVAFLSRYRDMNFLKSHGRDNARFIRKQGLDRLFLECDAHMWRLGDRRIPEGIAVDGGSDWFLLNRRFVEYVTFSTDDLVTKMKQFYSYTLLPAESFFHTVLENSPHCDTMVDNNLRITNWNRKLGCKCQYKHIVDWCGCSPNDFKPQDFHRFQQTARPTFFARKFEAVVNQEIIGQLDYYLYGNYPAGTPGLRSYWENVYDEPDGIHSLSDVTLTLYHSFARLGLRRAETSLHTDGENSCRYYPMGHPASVHLYFLADRFQGFLIKHHATNLAVSKLETLETWVMPKKVFKIASPPSDFGRLQFSEVGTDWDAKERLFRNFGGLLGPMDEPVGMQKWGKGPNVTVTVIWVDPVNVIAATYDILIESTAEFTHYKPPLNLPLRPGVWTVKILHHWVPVAETKFLVAPLTFSNRQPIKPEEALKLHNGPLRNAYMEQSFQSLNPVLSLPINPAQVEQARRNAASTGTALEGWLDSLVGGMWTAMDICATGPTACPVMQTCSQTAWSSFSPDPKSELGAVKPDGRLR
With B1 the Km was 300 µM.

— paper PMC2850172
